Measurements as given in US20110008841A1 (Amgen, published 2011).

B1: AMH13/AML13 (antibody, IgG2, V domains shown)
VH: QVQLVESGGGVVQPGRSLRLSCAASGFTFSSYGMQWVRQAPGKGLEWVAVIWYDGNKKYYADSVKGRFTISRDNSKNTLYLQMNSLRAEDTAVYYCARGRVRDYYYGMDVWGQGTTVTVSS
VL: DIVMTQTPLSLSVTPGQPASIACKSSQSLLHSDGKTYLYWYLQKPGQPPQLLIYEVSTRFSGVPDRFSGSGSGTDFTLKISRVEAEDVGVFYCMQSIQLPLTFGGGTKVEIK
notes: Fully human mAb from IgG2 XenoMouse mice; also called AM-13
B2: AMH17/AML17 (antibody, V domains shown)
VH: QVQLVQSGAEVKKPGAAVKVSCKATGYTLTSYGISWVRQAPGQGLEWMGWISAYSGNTKYAQKLQGRVTMTTDTSTSTAYMELRSLRSDDTAVYYCARKQLVFDYWGQGTLVTVSS
VL: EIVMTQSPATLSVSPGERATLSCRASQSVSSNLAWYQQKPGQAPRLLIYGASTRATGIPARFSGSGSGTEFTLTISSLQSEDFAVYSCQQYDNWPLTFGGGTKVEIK
notes: Fully human mAb from IgG2 XenoMouse mice; also called AM-17; antibody N
B3: AMH12/AML12 (antibody, IgG2, V domains shown)
VH: QVQLVQSGAEVKKPGASVKVSCKASGYTLTSYGISWVRQAPGQGLEWMGWISTYKGNTNYAQKLQGRVTMTTDTSTSTAYMELRSLRSDDTAVYYCARKQLVFDYWGQGTLVTVSS
VL: EIVMTQSPATLSVSPGERATLSCRASQSISSSLAWYQQKPGQAPRLLIYGASTRATGIPARFSGSGSGTEFTLTISSLQSENFAVYYCQQYDNWPLTFGGGTKVEIK
notes: Fully human mAb from IgG2 XenoMouse mice; also called AM-12; antibody M
B4: AMH16/AML16 (antibody, IgG2, V domains shown)
VH: QVQLVQSGAEVKKPGASVKVSCKASGYTFTSYGISWVRQAPGQGLEWMGWISAYNGNTKYAQKLQGRVTMTTDTSTSTVYMELRSLRSDDTAVYYCARKQLVFDYWGQGTLVTVSS
VL: EIVMTQSPATLSVSPGERATLSCRASQSISTSLAWYQQKPGQAPRLLIYGTSTRATGIPARFSGSGSGTEFTLTISSLQSEDFAVYFCQQYDIWPLTFGGGTKVEIK
notes: Fully human mAb from IgG2 XenoMouse mice; also called AM-16; antibody O
B5: AMH22/AML22 (antibody, IgG2, V domains shown)
VH: QVQLVQSGAEVKKPGASVKVSCKASGYTFTRYGISWVRQAPGQGLEWMGWISAYSGNTNYAQKLQGRVTMTTDTSTSTAYMELRSLRSDDTAVYYCARRQLYFDYWGQGTLVTVSS
VL: EIVMTQSPATLSVSPGERVTLSCRASQSVSSNLAWFQQKPGQAPRPLIYDASTRAAGIPARFSGSGSGTDFTLTISSLQSEDFAVYYCQQYDNWPLTFGGGTKVEIK
notes: Fully human mAb from IgG2 XenoMouse mice; also called AM-22; antibody I
B6: AMH11/AML11 (antibody, IgG2, V domains shown)
VH: QVQLVESGGGVVQPGRSLRLSCATSGITFSSYGMHWVRQAPGKGLEWVAVIWYDGSNKYYADSVKGRFTISRDNSKNTLYLQMNSLRAEDTAVYYCARDTKDYWGQGTLVTVSS
VL: EIVMTQSPATLSVSPGERATLSCRASQSVSSNLAWYQQKPGQAPRLLIYGASTRAAGIPARFSGGGSGTAFTLTISNLQSEDFAVYYCQHYINWPKWTFGQGTKVDIK
notes: Fully human mAb from IgG2 XenoMouse mice; also called AM-11; antibody A
B7: AMH5/AML5 (antibody, V domains shown)
VH: QVQLQESGPGLVKPSETLPLTCTVSGGSIRSYYWSWIRQPAGKGLEWIGRIYRSGNTIYNPSLKSRVTMSIDTSKNQFSLTLSSVTAADTAVYYCARENYSESSGLYYYYGMDVWGQGTTVTVSS
VL: DIQMTQSPSSLSASVGDRVTITCRASQGIRNDLGWYQQKPGKAPKRLIYAASSFQSGVPSRFSGSGSGTGFTLTISSLQPEDFATYYCLQHNSYPPTFGQGTKVEIK
notes: also called AM-5
B8: AMH1/AML1 (antibody, IgG2, V domains shown)
VH: QVQLQESGPGLVKPSETLSLTCTVSGGSISNYYWNWIRQSPGKGLEWIGDIYYSGSTNYNPSLKSRVTISVDTSKNQFSLKLSSVTTADTAVYYCARDGELANYYGSGSYQFYYYYGMDVWGQGTTVTVSS
VL: DILMTQSPSSLSASVGDRVTITCRASQGIRNDLGWYQQKPGKAPKRLIYAASSLQSGVPSRFSGSGSGTEFTLTISSLQPEDFATYYCLQHNSNPFTFGPGTKVDIK
notes: Fully human mAb from IgG2 XenoMouse mice; also called AM-1; antibody H
B9: AMH14/AML14 (antibody, V domains shown)
VH: QVQLVQSGAEVKKPGASVKVSCKASGYTFTRYGISWVRQAPGQGLEWMGWISTYSGNTNYAQKLQGRVTMTTDTSTSTAYMELRSLRSDDTAVYYCARRQLYFDYWGQGTLVTVSS
VL: EIVMTQSPATLSVSPGERATLSCRASQSVSSNLAWFQQKPGQAPRPLIYDASTRATGVPARFSGSGSGTDFTLTISSLQSEDFAVYYCQQYDNWPLTFGGGTKVEIK
notes: Fully human mAb from IgG2 XenoMouse mice; Biotinylated in the Octet assay; also called AM-14; antibody K
B10: AMH21/AML21 (antibody, IgG2, V domains shown)
VH: EVQLVESGGGSVQPGGSLRLSCAASGFTFSSYSMNWVRQAPGKGLEWVSIISSRSSIIHYADSVKGRFTISRDNAKNSLYLQMNSLRDEDTAVYYCARPKVGGGMDVWGQGTTVTVSS
VL: DIQMTQSPSSLSASVGDRVTITCRASQGISNYLAWYQQKPGKFPELLIYAASTLQSGVPSRFSGSGSGTDFTLTISSLQPEDVATYYCQKYNRAPFTFGPGTKVDIK
notes: Fully human mAb from IgG2 XenoMouse mice; also called AM-21; antibody Q
B11: AMH15/AML15 (antibody, V domains shown)
VH: QVQLVESGGGVVQPGRSLRLSCAASGFTFSSYGMQWVRQAPGKGLEWVAVIWYDGNKKYYADSVKGRFTISRDNSKNTLYLQMNSLRAEDTAVYYCARGRVRDYYYGMDVWGQGTTVTVSS
VL: EIVMTQSPATLSVSPGERVTLSCRASQSVSSNLAWFQQKPGQAPRPLIYDASTRAAGIPARFSGSGSGTDFTLTISSLQSEDFAVYYCQQYDNWPLTFGGGTKVEIK
notes: also called AM-15
B12: Germline version A (antibody, V domains shown)
VH: QVQLVQSGAEVKKPGASVKVSCKASGYTFTRYGISWVRQAPGQGLEWMGWISTYSGNTNYAQKLQGRVTMTTDTSTSTAYMELRSLRSDDTAVYYCARRQLYFDYWGQGTLVTVSS
VL: EIVMTQSPATLSVSPGERATLSCRASQSVSSNLAWYQQKPGQAPRLLIYDASTRATGIPARFSGSGSGTDFTLTISSLQSEDFAVYYCQQYDNWPLTFGGGTKVEIK
B13: Germline version B (antibody, V domains shown)
VH: QVQLVQSGAEVKKPGASVKVSCKASGYTFTRYGISWVRQAPGQGLEWMGWISTYSGNTNYAQKLQGRVTMTTDTSTSTAYMELRSLRSDDTAVYYCARRQLYFDYWGQGTLVTVSS
VL: EIVMTQSPATLSVSPGERATLSCRASQSVSSNLAWYQQKPGQAPRLLIYDASTRATGIPARFSGSGSGTEFTLTISSLQSEDFAVYYCQQYDNWPLTFGGGTKVEIK

Each binder was assayed against T1, cynomolgus IL-17RA on cells (cynomolgus) (assay: FACS, biotin-huIL-17A on cyno IL-17RA+ CHO cells with non-clonal supernatant; lower = more inhibition).
T1 construct: whole, on cells; also called CHO-cynoIL-17RA; cyno IL-17RA+ CHO cells
Procedure: Non-clonal hybridoma supernatants were prepared in volumes of 1-2 mls (the Ig concentrations were not determined for these supernatants). […] Anti-IL-17RA non-clonal hybridomas were selected for sub-cloning based on their performance in the CHO-IL-17RA FACS assay and HFF bioassay.

Point of comparison: B1, MFI 6. Against it:
- B2 — higher, 8
- B3 — the same, 6
- B4 — the same, 6

The binders below were run against T1, cynomolgus IL-17RA on cells (assay: FACS, biotin-huIL-17A on cyno IL-17RA+ cells with non-clonal supernatant; lower = more inhibition).

Point of comparison: B6, MFI 9. Against it:
- B5 — higher, 18
- B7 — the same, 9
- B8 — higher, 11

Molecular target: T1, cynomolgus IL-17RA on cells
Test: FACS, biotin-huIL-17A on cyno IL-17RA+ CHO cells with non-clonal supernatant; lower = more inhibition
Remark: another data set of the same source
Procedure: The anti-IL-17RA antibodies were characterized. Non-clonal hybridoma supernatants were prepared in volumes of 1-2 mls (the Ig concentrations were not determined for these supernatants).

Point of comparison: B10, MFI 6. Against it:
- B9 — higher, 10
- B11 — the same, 6

Each binder was assayed against Human IL-17RA full-length expressed on the surface of cells (human, UniProt Q96F46 33-866) (assay: cell-based or functional assay).

Point of comparison: B13, “IC50, HFF bioassay (ligand not named on the sheet)” value ~103 nM. Against it:
- B12 — within 1.5-fold, ~107 nM
